Key:
Experiment in all cases: IEDB peptide-MHC binding, purified MHC/competitive/radioactivity; filed as Kd, often an IC50 or EC50 that approximates it; ≥ and ≤ were set here for values at or beyond the usual limits of such assays
[1] = target: HLA-A*03:01
[2] = target: HLA-A*11:01
[3] = target: HLA-A*31:01
[4] = target: HLA-A*33:01
[5] = target: HLA-A*68:01
[6] = target: HLA-A*02:03
[7] = source organism: SARS coronavirus Tor2
[8] = source organism: Vaccinia virus WR
[9] = source organism: Dengue virus 4 Philippines/H241/1956
[10] = source organism: Dengue virus 2 Peru/IQT2913/1996
[11] = source organism: Dengue virus 1 Nauru/West Pac/1974
[12] = source organism: Dengue virus 3 Martinique/1243/1999
[13] = source organism: Dengue virus 1 Brazil/97-11/1997
[14] = source organism: Lassa virus Josiah
[15] = source organism: Dengue virus 3 Sri Lanka/1266/2000
[16] = source organism: Mammarenavirus guanaritoense

Row | Sequence | Kd [1, 8] [nM] | Kd [2, 8] [nM] | Kd [3, 8] [nM] | Kd [4, 8] [nM] | Kd [5, 8] [nM] | other results
1 | AFQHQNSKK | – | – | – | – | – | Kd [1, 7]: 13900 nM; Kd [2, 7]: 3000 nM; Kd [3, 7]: 672 nM; Kd [4, 7]: ≥ 22600 nM; Kd [5, 7]: 3920 nM
2 | ALDEKWNEFK | 192 | 98.2 | 7280 | ≥ 70000 | 9850 | –
3 | ALGGSIAVK | – | – | – | – | – | Kd [1, 7]: 15.2 nM; Kd [2, 7]: 171 nM; Kd [3, 7]: 12500 nM; Kd [4, 7]: ≥ 77700 nM; Kd [5, 7]: 11200 nM
4 | ALKYLPIDK | – | – | – | – | – | Kd [1, 7]: 299 nM; Kd [2, 7]: 878 nM; Kd [3, 7]: 6570 nM; Kd [4, 7]: ≥ 48500 nM; Kd [5, 7]: 2370 nM
5 | AQYKCVTIKY | 220 | 80.1 | 2140 | ≥ 21900 | 967 | –
6 | ATLTEGVYR | – | – | – | – | – | Kd [3, 9]: 7.26 nM
7 | ATSTGNYNYK | – | – | – | – | – | Kd [1, 7]: 4.34 nM; Kd [2, 7]: 1.38 nM; Kd [3, 7]: 69.5 nM; Kd [4, 7]: ≥ 26300 nM; Kd [5, 7]: 9.61 nM
8 | ATTFITPMLR | – | – | – | – | – | Kd [2, 10]: 14 nM; Kd [3, 10]: 48.6 nM; Kd [5, 10]: 15.3 nM
9 | ATTIITPMMR | – | – | – | – | – | Kd [2, 11]: 162 nM; Kd [3, 11]: ≥ 70000 nM; Kd [5, 11]: 386 nM
10 | AVSTANIFR | – | – | – | – | – | Kd [2, 9]: 90.7 nM; Kd [5, 9]: 29.6 nM
11 | AVVLMGLDK | – | – | – | – | – | Kd [2, 12]: 2470 nM
12 | CAMPYNILDR | 7240 | 187 | 301 | 640 | 8.75 | –
13 | CFKEASFSKR | 9160 | ≥ 43600 | 35.9 | 61.4 | 1640 | –
14 | CTGSFKLEK | – | – | – | – | – | Kd [2, 13]: 39.8 nM
15 | DISEMGANFR | – | – | – | – | – | Kd [4, 13]: 231 nM; Kd [5, 13]: 12.9 nM
16 | DTQMRTPLHK | 4160 | 78 | ≥ 52100 | 12500 | 1480 | –
17 | DVPSPAAAQK | – | – | – | – | – | Kd [5, 9]: 192 nM
18 | ELGKKKTPR | – | – | – | – | – | Kd ([4]; source organism: Dengue virus 2 Jamaica/1409/1983): 116 nM
19 | ESRDRKWLYY | 11500 | ≥ 59000 | ≥ 70000 | ≥ 70000 | 10800 | –
20 | ETTKHAVSR | – | – | – | – | – | Kd [4, 13]: 10.6 nM; Kd [5, 13]: 10.3 nM
21 | EVGAIALDFK | – | – | – | – | – | Kd [5, 13]: 15.6 nM
22 | FIDVHIPKFK | 1060 | 179 | 2700 | 13100 | 108 | –

Row | Sequence | Kd [1, 8] [nM] | Kd [2, 8] [nM] | Kd [3, 8] [nM] | Kd [4, 8] [nM] | Kd [5, 8] [nM] | other results
23 | FTTNIWLKLK | – | – | – | – | – | Kd ([5]; source organism: Dengue virus 2 16681-PDK53): 12.5 nM
24 | FVSLVKKNK | ≥ 78000 | 120 | ≥ 77900 | ≥ 33600 | 215 | –
25 | GICSCGAFK | – | – | – | – | – | Kd ([2]; source organism: Lymphocytic choriomeningitis virus (strain Armstrong)): 54.6 nM
26 | GIGTFLHYK | 7.8 | 0.585 | 65.7 | 3780 | 24 | –
27 | GLAMGIMMLK | – | – | – | – | – | Kd [1, 13]: 12.1 nM; Kd [2, 13]: 156 nM
28 | GSYIALDSGR | – | – | – | – | – | Kd [1, 14]: 4230 nM; Kd [2, 14]: 150 nM; Kd [3, 14]: 78.3 nM; Kd [4, 14]: 1160 nM; Kd [5, 14]: 276 nM
29 | HATMLDVDLR | – | – | – | – | – | Kd ([5]; source organism: Dengue virus 1 Singapore/S275/1990): 90.6 nM
30 | HIKTIAVSVY | 257 | 8240 | 914 | 13800 | 5820 | –
31 | HIVGKSCPK | – | – | – | – | – | Kd [1, 14]: 11000 nM; Kd [2, 14]: 15000 nM; Kd [3, 14]: ≥ 45000 nM; Kd [4, 14]: ≥ 24200 nM; Kd [5, 14]: ≥ 26700 nM
32 | HLYLQYIRK | – | – | – | – | – | Kd [1, 7]: 0.172 nM; Kd [2, 7]: 14.8 nM; Kd [3, 7]: 516 nM; Kd [4, 7]: 6900 nM; Kd [5, 7]: 1610 nM
33 | HMVRCCKVY | 399 | ≥ 40000 | 10700 | ≥ 45800 | 780 | –
34 | HTSVSAKQLR | 2510 | 274 | 162 | 1140 | 16.3 | –
35 | IASKINNNR | 13200 | 329 | 28.8 | 76.6 | 1.86 | –
36 | IFPANINDK | 2240 | 1090 | 3580 | 12500 | 1200 | –
37 | IFTLTVAWR | – | – | – | – | – | Kd [3, 15]: 163 nM; Kd [4, 15]: 5.89 nM
38 | ILFMEMFFDY | 31.6 | 121 | 5470 | ≥ 64300 | 845 | –
39 | ILHVDNHIGI | – | – | – | – | – | Kd ([6]; source organism: Homo sapiens): 11.1 nM
40 | ILKEPVHGV | – | – | – | – | – | Kd ([6]; source organism: Human immunodeficiency virus type 1 BH10): 6.3 nM
41 | ILKINSVKYY | 17200 | 13500 | 4910 | 11200 | 1420 | –
42 | IMAYVNQAHH | – | – | – | – | – | Kd [1, 16]: 4010 nM; Kd [3, 16]: 1120 nM; Kd [4, 16]: 3920 nM; Kd [5, 16]: 97 nM
43 | IMKDGRKLV | – | – | – | – | – | Kd [6, 12]: 558 nM
44 | IMQRGLFGK | – | – | – | – | – | Kd [1, 9]: 85.6 nM; Kd [2, 9]: 327 nM
